Measurements taken from article PMC10844976 (The Journal of Biological Chemistry, 2024).
“And” between values parts separate entries of the source, which are not always exact repeats. Identical values can stand only once.

B1: M1 protein (natural protein)
chain: NGDGNPREVIEDLAANNPAIQNIRLRYENKDLKARLENAMEVAGRDFKRAEELEKAKQALEDQRKDLETKLKELQQDYDLAKESTSWDRQRLEKELEEKKEALELAIDQASRDYHRATALEKELEEKKKALELAIDQASQDYNRANVLEKELETITREQEINRNLLGNAKLELDQLSSEKEQLTIEKAKLEEEKQISDASRQSLRRDLDASREAKKQVEKDLANLTAELDKVKEDKQISDASRQGLRRDLDASREAKKQVEKDLANLTAELDKVKEEKQISDASRQGLRRDLDASREAKKQVEKALEEANSKLAALEKLNKELEESKKLTEKEKAELQAKLEAEAKALKEQLAKQAEELAKLRAGKASDSQTPDTKPGNKAVPGKGQAPQAGTKPNQNKAPMKETKRQLPST

How the values were obtained:
[1] = target: M-related protein (Mrp), mrp type 52, from GAS strain PRS66 (Streptococcus pyogenes); experiment: SPR
[2] = target: M-related protein (Mrp), mrp type 115, from GAS strain NS730 (Streptococcus pyogenes); experiment: SPR
[3] = target: M-related protein (Mrp), mrp type 8, from GAS strain NS931 (Streptococcus pyogenes); experiment: SPR
[4] = target: M-related protein (Mrp), mrp type 298, from GAS strain 939–03 (Streptococcus pyogenes); experiment: SPR
[5] = target: M-related protein Mrp216 (mrp type 216), from GAS strain NS88.2 (Streptococcus pyogenes); experiment: SPR
[6] = target: M-related protein (Mrp), mrp type 174, from GAS strain NS452 (Streptococcus pyogenes); experiment: SPR
[7] = target: M-related protein Mrp71 (mrp type 71), from GAS strain NS192 (Streptococcus pyogenes); experiment: SPR
[8] = target: M1 protein (Streptococcus pyogenes) (UniProt Q99XV0); experiment: mass photometry
[9] = target: M-related protein Mrp216 (mrp type 216), from GAS strain NS88.2 (Streptococcus pyogenes); experiment: mass photometry
[10] = target: M-related protein Mrp193 (mrp type 193), from GAS strain NS80 (Streptococcus pyogenes); experiment: SPR
[11] = target: M-related protein Mrp105 (mrp type 105), from GAS strain NS210 (Streptococcus pyogenes); experiment: SPR
[12] = target: M54 protein (Streptococcus pyogenes); experiment: mass photometry
[13] = target: the molecule itself; experiment: mass photometry

Molecule	Kd [1] [nM]	Kd [2] [nM]	Kd [3] [nM]	Kd [4] [nM]	Kd [5] [nM]	Kd [6] [nM]	Kd [7] [nM]	stoichiometry N (IgG per M1 dimer) [8]	stoichiometry N (IgG per Mrp216 dimer) [9]	Kd [10] [nM]	Kd [11] [nM]	stoichiometry N [12]	stoichiometry N [9]	stoichiometry N [13]
human IgG1 (antibody)	3	13.4	15.3	16	5.4	9.71	11.1	–	–	–	–	–	–	–
human IgG (pooled mixture of all IgG subclasses found in serum) (antibody)	–	10.2	–	9.3	–	8.8	11.1	1	1	6.4	–	–	–	–
human IgG3 (antibody)	145	244	256	226	302	152	220	–	–	201	208	–	–	–
human IgG4 (antibody)	9.02	7.4	11.9	13.4	4.3	11.9	15.2	–	–	6.5	10.6	–	–	–
human IgG2 (antibody)	6.4	13.5	21.8	19.4	8.12	11	15.4	–	–	8.17	7.03	–	–	–
M54 protein (natural protein)	–	–	–	–	–	–	–	–	–	–	–	2 and 4	–	–
M-related protein Mrp216 (mrp type 216), from GAS strain NS88.2 (natural protein)	–	–	–	–	–	–	–	–	–	–	–	–	2	–
B1	–	–	–	–	–	–	–	–	–	–	–	–	–	2
